Experiments:
[1] = target: T1, human Type 1 mutCALR on Ba/F3 cells expressing MPL and Type 1 mutCALR (human); test: cell-based or functional assay
T1 chain: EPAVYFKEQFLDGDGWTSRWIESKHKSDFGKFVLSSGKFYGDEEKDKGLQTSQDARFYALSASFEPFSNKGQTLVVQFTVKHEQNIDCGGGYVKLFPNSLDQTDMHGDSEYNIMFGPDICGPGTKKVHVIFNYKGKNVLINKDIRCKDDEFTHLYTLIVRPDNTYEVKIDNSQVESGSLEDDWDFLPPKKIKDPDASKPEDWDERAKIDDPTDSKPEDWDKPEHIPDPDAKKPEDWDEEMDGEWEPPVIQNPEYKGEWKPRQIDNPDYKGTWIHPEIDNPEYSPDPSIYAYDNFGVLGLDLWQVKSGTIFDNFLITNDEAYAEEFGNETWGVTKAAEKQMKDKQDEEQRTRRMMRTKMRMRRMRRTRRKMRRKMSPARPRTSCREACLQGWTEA

[2] = target: T2, human mutCALR on BaF3 cells stably expressing human MPL and human mutCALR (MPL-mutCALR cells) (human); test: flow cytometry, BaF3 MPL-mutCALR cells
T2 construct: also called mutant calreticulin
T2 chain: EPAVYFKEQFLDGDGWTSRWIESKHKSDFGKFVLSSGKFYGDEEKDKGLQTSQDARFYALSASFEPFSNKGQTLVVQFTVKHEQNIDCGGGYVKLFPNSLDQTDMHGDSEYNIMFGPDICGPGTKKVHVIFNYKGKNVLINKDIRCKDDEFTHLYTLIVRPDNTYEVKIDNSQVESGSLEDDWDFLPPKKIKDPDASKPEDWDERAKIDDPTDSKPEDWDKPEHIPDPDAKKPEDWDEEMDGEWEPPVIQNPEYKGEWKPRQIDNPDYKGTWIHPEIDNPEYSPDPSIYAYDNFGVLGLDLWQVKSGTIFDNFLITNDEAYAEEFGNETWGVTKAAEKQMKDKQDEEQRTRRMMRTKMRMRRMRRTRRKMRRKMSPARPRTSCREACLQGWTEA
Protocol: On the day of the assay, cells were washed and resuspended in assay buffer. Approximately 200,000 cells/well were added to 96-well plates and stained with the indicated concentration of antibodies for 30 minutes on ice. Cells were then washed and stained with goat anti-human secondary conjugated to R-phycoerythrin (R-PE) (Jackson Immuno Research Laboratories) for 30 minutes on ice. The cells were then washed and analyzed by flow cytometry.

B1: anti-mutCALR antibody clone 53 (antibody, human IgG1, lambda, V domains shown)
VH: QVQLVQSGAEVKKPGASVKVSCKVSGYTLTELSMHWVRQAPGKGLEWMGGFDPEDGETIYAQKFQGRVTMTEDTSTDTAYMELSSLRSEDTAVYYCATDIQGLAEFDYWGQGTLVTVSS
VL: QSALTQPRSVSGSPGQSVTISCTGTNTDVGAYIDVSWYQQHPGKAPKLIIYDVSKWPSGVPDRFSGSKSGNTASLTISGLQAEDEADYYCCSYAGNHSFSFGGGTKVTVLG
notes: human IgG1
IC50, inhibition of pSTAT5 [1]: 0.402 µg/mL | EC50 [2]: 0.02 µg/mL | MPL-mutCALR AUC [2]: 64600

B2: anti-mutCALR antibody clone 41 (antibody, human IgG1, lambda, V domains shown)
VH: EVQLVQSGAEVKKPGASVKVSCKVSGYTLTELSMHWVRQAPGKGLEWMGLVDPEDGETIYAQKFQGRVTMTEDTSTDTAYMELSSLRSEDTAVYYCAREEWSGDGDDAFDIWGQGTMVTVSS
VL: QSVLTQPPSVSAAPGQKVTISCSGSSSNIGSYSVSWYQQLPGTAPKLLIYDNNKRPSGIPDRFSGSNSGTSATLGITGLQTGDEADYYCGTWDSSLSAWVFGGGTKLTVLG
notes: human IgG1
IC50, inhibition of pSTAT5 [1]: 0.364 µg/mL | MPL-mutCALR AUC [2]: 60600

B3: anti-mutCALR antibody clone 40 (antibody, human IgG1, lambda, V domains shown)
VH: EVQLVQSGAEVKKPGASVKVSCKVSGYTLTESSMHWVRQAPGKGLEWMGLVDPEDGETIYAQKFQGRVTMTEDTSTDTAYMELSSLRSEDTAVYYCAREEWSGDGDDAFDIWGQGTMVTVSS
VL: QSVLTQPPSVSAAPGQKVTISCSGSSSNIGSYSVSWYQQLPGTAPKLLIYDNNKRPSGIPDRFSGSNSGTSATLGITGLQTGDEADYYCGTWDSSLSAWVFGGGTKLTVLG
notes: human IgG1
IC50, inhibition of pSTAT5 [1]: 0.742 µg/mL | EC50 [2]: 0.07 µg/mL | MPL-mutCALR AUC [2]: 52900

B4: anti-mutCALR antibody clone 42 (antibody, human IgG1, lambda, V domains shown)
VH: EVQLVQSGAEVKKPGASVKVSCKVSGYTLTELSMHWVRQAPGKGLEWMGLVDPEDGETIYAQKFQGRVTMTEDTSTDTAYMELSSLRSEDTAVYYCAREEWSGDGDDAFDIWGQGTMVTVSS
VL: QSVLTQPPSVSAAPGQKVTISCSGSSSNIGSYSVSWYQQLPGTAPKLLIYDDNKRPSGIPDRFSGSNSGTSATLSITGLQTGDEADYYCGTWDSSLSAWVFGGGTKLTVLG
notes: human IgG1
IC50, inhibition of pSTAT5 [1]: 0.196 µg/mL | MPL-mutCALR AUC [2]: 61300

B5: anti-mutCALR antibody clone 37 (antibody, human IgG1, lambda, V domains shown)
VH: QVQLVQSGAEVKKPGATVKISCKVSGYSFTDYFIHWVQQAPGKGLAWVGLVDPEDGETIYAEKFQGRVTITADTSTDTAYMELSSLRSEDTAVYYCATPGGILTDPDAFDIWGQGTMVTVSS
VL: QSALTQPASVSGSPGQSITISCTGTSSDVGGYNYVSWYQQHPGKAPKLMIYDVSNRPSGVSNRFSGSKSGNTASLTISGLQAEDEADYYCSSYTSSSTFYVFGTGTKVTVLG
notes: human IgG1
IC50, inhibition of pSTAT5 [1]: 0.039 µg/mL | EC50 [2]: 9.64 µg/mL | MPL-mutCALR AUC [2]: 80900

B6: anti-mutCALR antibody clone 33 (antibody, human IgG1, lambda, V domains shown)
VH: QVQLVQSGAEVKKPGATVKISCKVSGYSFTDYFIHWVQQAPGKGLAWVGLVDPEDGETIYAEKFQGRVTITADTSTDTAYMELSSLRSEDTAVYYCATPGGILTDPDAFDIWGQGTMVTVSS
VL: QSALTQPRSVSGSPGQSVTISCAGTGSDVGGYNHVSWYQHHPGKAPKLMIYDVNKRPSGVPDRFSGSKSGNTASLTISGLQAEDEADYYCSSYIPSSTRWVFGGGTKLTVLG
notes: human IgG1
IC50, inhibition of pSTAT5 [1]: 80.4 µg/mL | EC50 [2]: 0.15 µg/mL | MPL-mutCALR AUC [2]: 38700

B7: anti-mutCALR antibody clone 34 (antibody, human IgG1, lambda, V domains shown)
VH: QVQLVQSGAEVKKPGATVKISCKVSGYSFTDYFIHWVQQAPGKGLAWVGLVDPEDGETIYAEKFQGRVTITADTSTDTAYMELSSLRSEDTAVYYCATPGGILTDPDAFDIWGQGTMVTVSS
VL: QSALTQPASVSGSPGQSITISCTGTSSDVGGYNYVSWYQQHPGKAPKLMIYEVSNRPSGVSNRFSGSKSGNTASLTISGLQAEDEADYYCSSYTSSSTYVFGTGTKVTVLG
notes: human IgG1
IC50, inhibition of pSTAT5 [1]: 0.072 µg/mL | EC50 [2]: 0.02 µg/mL | MPL-mutCALR AUC [2]: 71900

B8: anti-mutCALR antibody clone 35 (antibody, human IgG1, lambda, V domains shown)
VH: QVQLVQSGAEVKKPGATVKISCKVSGYSFTDYFIHWVQQAPGKGLAWVGLVDPEDGETIYAERFQGRVTITADTSTDTAYMELSSLRSEDTAVYYCATPGGILTDPDAFDIWGQGTMVTVSS
VL: QSALTQPASVSGSPGQSITISCTGTSSDVGGYNYVSWYQQHPGKAPKLMIYEVSNRPSGVSNRFSGSKSGNTASLTISGLQAEDEADYYCSSYTSSSTPYVFGTGTKVTVLG
notes: human IgG1
IC50, inhibition of pSTAT5 [1]: 0.444 µg/mL | EC50 [2]: 0.02 µg/mL | MPL-mutCALR AUC [2]: 62100

B9: anti-mutCALR antibody clone 36 (antibody, human IgG1, lambda, V domains shown)
VH: QVQLVQSGAEVKKPGATVKISCKVSGYSFTDYFIHWVQQAPGKGLAWVGLVDPEDGETIYAEKFQGRVTITADTSTDTAYMELSSLRSEDTAVYYCATPGGILTDPDAFDIWGQGTMVTVSS
VL: QSALTQPRSVSGSPGQSVTISCAGTGSDVGGYNYVSWYQHHPGKAPKLMIYDVNKRPSGVPDRFSGSKSGNTASLTISGLQAEDEADYYCSSYTSSSTFYVFGTGTKVTVLG
notes: human IgG1
IC50, inhibition of pSTAT5 [1]: 0.092 µg/mL | EC50 [2]: 0.01 µg/mL | MPL-mutCALR AUC [2]: 73800

B10: anti-mutCALR antibody clone 32 (antibody, human IgG1, lambda, V domains shown)
VH: QVQLVQSGAEVKKPGATVKISCKVSGYSFTDYFIHWVQQAPGKGLAWVGLVDPEDGETIYAEKFQGRVTITADTSTDTAYMELSSLRSEDTAVYYCATPGGILTDPDAFDIWGQGTMVTVSS
VL: QSALTQPASVSGSPGQSITISCTGTSSDVGGYNYVSWYQQHPGKAPKLMIYEVSNRPSGVSNRFSGSKSGNTASLTISGLQAEDEADYYCSSYTSSSTPYVFGTGTKVTVLG
notes: human IgG1
IC50, inhibition of pSTAT5 [1]: 0.47 µg/mL | EC50 [2]: 0.01 µg/mL | MPL-mutCALR AUC [2]: 52500

B11: anti-mutCALR antibody clone 31 (antibody, human IgG1, lambda, V domains shown)
VH: QVQLVQSGAEVKKPGATVKISCKVSGYSFTDYFIHWVQQAPGKGLAWVGLVDPEDGETIYAEKFQGRVTITADTSTDTAYMELSSLRSEDTAVYYCATPGGILTDPDAFDIWGQGTMVTVSS
VL: QSALTQPASVSGSPGQSVTISCTGTSSDVGGYNYVSWYQHHPGKAPKLMIYDVNKRPSGVPDRFSGSKSGNTASLTISGLQAEDEADYYCSSYIPSSTRWVFGGGTKLTVLG
notes: human IgG1
IC50, inhibition of pSTAT5 [1]: 26.8 µg/mL | EC50 [2]: 0.01 µg/mL | MPL-mutCALR AUC [2]: 45700

B12: anti-mutCALR antibody clone 48 (antibody, human IgG1, lambda, V domains shown)
VH: EVQLVQSGAEVKKPGSSVKVSCKASGGTFSSYAISWVRQAPGQGLEWMGGIIPIFGTANYAQKFQGRVTITADESTSTAYMELSSLRSEDTAVYYCASSPLRGSGWYWHYYYGMDVWGQGTTVTVSS
VL: SYVLTQPPSVSVAPGKTARITCGGNNIGSKSVHWYQQKPGQAPVLVIYQDRKRPSGIPERFSGSNSGNTATLTISGTQAMDEADYYCQAWDSSTAVFGGGTKLTVLG
notes: human IgG1
IC50, inhibition of pSTAT5 [1]: 2.6 µg/mL | MPL-mutCALR AUC [2]: 30300

B13: anti-mutCALR antibody clone 6 (antibody, human IgG1, lambda)
heavy: not shown
light: QSALTQPASVSGSPGQSITISCTGTSSDVGGYNYVSWYQQHPGKAPKLMIYEVSNRPSGVSNRFSGSNSGNTATLTINRVEAGDEADYYCQVWDSSNDLLIFGGGTKLTVLGQPKAAPSVTLFPPSSEELQANKATLVCLISDFYPGAVTVAWKADSSPVKAGVETTTPSKQSNNKYAASSYLSLTPEQWKSHRSYSCQVTHEGSTVEKTVAPTECS
notes: human IgG1
IC50, inhibition of pSTAT5 [1]: 0.03 µg/mL | EC50 [2]: 0.3 µg/mL | MPL-mutCALR AUC [2]: 58200

B14: anti-mutCALR antibody clone 11 (antibody, human IgG1, lambda, V domains shown)
VH: EVRLVQSGAEVKKPGASVKVSCKVSGYTLTELSMQWVRQAPGKGLEWMGGFDPDDGETMYAEKFQGRLTVTEDTSTDTVYMELRSLTSEDTALYFCATSPGYDFFDYWGQGTLVTVSS
VL: QSALTQPRSVSGSPGQSVTISCTGTSSDVGGYNYVSWYQQHPGKAPKLMIYDVSKRPSGVPDRFSGSNSGNTATLTINRVEAGDEADYYCQVWDSSNDLLIFGGGTKLTVLG
notes: human IgG1
IC50, inhibition of pSTAT5 [1]: 0.052 µg/mL | EC50 [2]: 0.05 µg/mL | MPL-mutCALR AUC [2]: 69700

B15: anti-mutCALR antibody clone 52 (antibody, human IgG1, kappa, V domains shown)
VH: EVQLVQSGAEVKKPGASVKVSCKVSGYTLTELSMHWVRQAPGKGLEWMGLVDPEDGETIYAEKFQGRVTITADTSTDTAYMELSSPRSEDTAVYYCATTIGDDYFDYWGQGTLVTVSS
VL: not shown
notes: human IgG1
IC50, inhibition of pSTAT5 [1]: 0.346 µg/mL | MPL-mutCALR AUC [2]: 65800

B16: anti-mutCALR antibody clone 38 (antibody, human IgG1, kappa, V domains shown)
VH: EVQPVQSGAEVKKPGSSVKVSCKASGGTFSSYAISWVRQAPGQGLEWMGLVDPEDGETIYAEKFRGRVTITADTSTDTAYMELSSLRSEDTAVYYCATEESYGPWGQGTLVTVSS
VL: DIQLTQSPSSLSASVGDRVTITCQASQDISNYLNWYQQKPGKAPKLLIYDASNLETGVPSRFSGSGSGTEFTLTISSLQPEDFATYYCQQLNSYPLTFGGGTKLEIKR
notes: human IgG1
IC50, inhibition of pSTAT5 [1]: 3.55 µg/mL | EC50 [2]: 1.44 µg/mL | MPL-mutCALR AUC [2]: 37000

B17: anti-mutCALR antibody clone 39 (antibody, human IgG1, kappa, V domains shown)
VH: EVQLVQSGAEVKKPGSSVKVSCKASGGTFSSYAISWVRQAPGQGLEWMGLVDPEDGETIYAEKFQGRVTITADTSTDTAYMELSSLRSEDTAVYYCATEESYGPWGQGTLVTVSS
VL: DIQLTQSPSSLSASVGDRVTITCQASQDISNYLDWYQQKPGKAPKLLIYDASNLETGVPSRFSGSGSGTEFTLTISSLQPEDFATYYCQQLNSYPLTFGGGTKLEIKR
notes: human IgG1
IC50, inhibition of pSTAT5 [1]: 3.97 µg/mL | MPL-mutCALR AUC [2]: 51500

— US20230272055A1 (Incyte, published 2023)
